The test system of series [1] is PnyAgo WT (Pedobacter nyackensis). Nature of the series: filter binding. The conditions noted are these: 10 mM Tris-HCl pH 7.9, 100 mM NaCl, 5 mM MgCl2 (or none), 5% glycerol, 100 ug/ml BSA, 37 C.
Series [2] shares this test system. Nature of the series: competition. The conditions noted are these: filter binding, 100 nM pAgo; 5'-OH; 10 mM Tris-HCl pH 7.9, 100 mM NaCl, 5 mM MgCl2 (or none), 5% glycerol, 100 ug/ml BSA, 37 C.
Series [3] has as its target T1, PliAgo WT (Pseudooceanicola lipolyticus, UniProt A0A2M8J4C7 1-789).
T1 sequence: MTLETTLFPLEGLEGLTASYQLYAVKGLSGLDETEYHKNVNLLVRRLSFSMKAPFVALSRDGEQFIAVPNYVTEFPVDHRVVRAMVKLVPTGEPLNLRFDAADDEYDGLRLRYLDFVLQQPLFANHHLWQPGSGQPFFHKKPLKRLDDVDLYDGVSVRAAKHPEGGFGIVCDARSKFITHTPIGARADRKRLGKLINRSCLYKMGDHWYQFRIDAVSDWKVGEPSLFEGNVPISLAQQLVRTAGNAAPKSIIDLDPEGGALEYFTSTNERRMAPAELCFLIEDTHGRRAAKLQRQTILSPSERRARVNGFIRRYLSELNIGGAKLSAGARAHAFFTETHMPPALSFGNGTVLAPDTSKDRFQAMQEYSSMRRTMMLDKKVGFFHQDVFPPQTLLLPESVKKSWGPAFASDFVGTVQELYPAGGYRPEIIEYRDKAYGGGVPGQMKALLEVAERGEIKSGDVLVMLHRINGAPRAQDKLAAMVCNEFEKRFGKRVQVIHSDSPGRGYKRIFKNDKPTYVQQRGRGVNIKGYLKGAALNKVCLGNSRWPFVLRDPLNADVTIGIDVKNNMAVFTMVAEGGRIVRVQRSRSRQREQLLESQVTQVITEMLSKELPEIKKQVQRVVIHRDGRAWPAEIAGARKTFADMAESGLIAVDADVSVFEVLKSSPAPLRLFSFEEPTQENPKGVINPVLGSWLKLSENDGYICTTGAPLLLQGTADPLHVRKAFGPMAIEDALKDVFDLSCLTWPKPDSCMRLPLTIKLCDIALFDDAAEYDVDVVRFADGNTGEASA
Nature of the series: X-ray crystallography; 10 mM Tris-HCl pH 7.9, 100 mM NaCl, 5 mM MgCl2 (or none), 5% glycerol, 100 ug/ml BSA, 37 C. The conditions noted are these: protein: recombinant; tags: N-His6; single strand.

Series [4] concerns the target T1, PliAgo WT. The series can be described thus: X-ray crystallography; no Mg2+. The conditions noted are these: protein: recombinant; tags: N-His6; single strand.

As usually defined, the Kd is the equilibrium constant for the complex coming apart. “GTTAGACTTTAAGTCAAT / UUUAUCAAAAAGAGUAUUGACUUAAAGUCUAACCUAUAGGAUACUUACAG [guide DNA / G-target-RNA]” showed a Kd in series [1] (guide-loaded, 5'-phosphate on guide) of 7.5 nM. This counts as single-digit nanomolar. Regarding “GTTAGACTTTAAGTCAAT [5'-OH guide DNA (G-guide)]”, the binding signal (fold Kd increase vs 5'-P guide) in series [2] stood at 12. In the case of “GTTAGACTTTAAGTCAAT [5'-P guide DNA (G-guide)]”, the Kd in series [1] (5 mM Mg2+, 5'-phosphate) is 31 nM; in series [1] (no Mg2+, 5'-phosphate), 390 nM. Regarding “GUUAGACUUUAAGUCAAU [guide RNA (G-guide-RNA)]”, the Kd in series [1] (5 mM Mg2+, 5'-phosphate) was over 1000 nM.

B1: 3D-guide OH-gDNA (ssDNA)
DNA: TTACTGCACAGGTGACGA
modifications: 5'-OH
For the molecule B1, the binding result with PliAgo WT [3] is reported as “binds”.

B2: 3D-guide P-gDNA (ssDNA)
DNA: TTACTGCACAGGTGACGA
modifications: 5'-phosphate
Consider B2, for which the binding result in the series with PliAgo WT [4] is reported as “binds”.
